{
  "source": "paper PMC10163220",
  "key": {"[1]": {"target": "ZIKV NS4A N-terminal peptide construct (residues 4–58) with N-terminal His-tag and linker (Zika virus (strain MR-766))", "experiment": "AUC; sedimentation equilibrium; approx. 10, 20 and 40 µM in 50 mM Tris–HCl pH 7.3, 150 mM NaCl; 23,000, 28,000, 34,500 and 42,000 rpm; 280 nm; self-equilibrium models in SEDPHAT, monomer to dimer to trimer"}, "[2]": {"target": "ZIKV NS4A N-terminal peptide construct (residues 4–58) with N-terminal His-tag and linker (Zika virus (strain MR-766))", "experiment": "AUC; sedimentation velocity; 50 mM Tris–HCl (pH 7.4), approx. 3–300 µM, 50,000 rpm, 20 °C, absorbance at 230 or 280 nm; c(s), c(s,ff0) and hybrid local continuous global discrete (non-interacting) analysis; no detergent or lipids"}},
  "data": [
    {"substance": "ZIKV NS4A N-terminal peptide construct (residues 4–58) with N-terminal His-tag and linker", "values": [
      {"measurement": "percent of monomers in trimers at 50 µM", "setting": "[1]", "result": 50, "unit": "%"},
      {"measurement": "stoichiometry N", "setting": "[1]", "result": 3},
      {"measurement": "stoichiometry N", "setting": "[2]", "result": 3}
    ]}
  ]
}
